Laboratory results reported in article PMC7846742.

Experiments:
[1] = target: His6-OAZ-GSY-SPM-Ctag (human | Neisseria meningitidis serogroup B (strain MC58)) (UniProt Q9JYV5); assay: cross-linking; NeissLock: Ca2+-induced aspartic anhydride on OAZ reacts with the docked partner; purified proteins mixed at 10 µM each or as indicated (AZI 2.5 µM each; Fig. 4b 0.5 µM each; 30 µM ODC with 10 µM OAZ-Y-SPM), 37 °C, HBS pH 7.4 with 2 mM TCEP, 10 mM CaCl2 unless varied (pH 6.5-8.5, 0.5-10 mM Ca2+, TBS, lyophilised probe); SDS-PAGE with Coomassie, intact ESI-MS, tryptic LC-MS/MS
[2] = target: AviTag-His6-OAZ-GSY-SPM-Ctag (wt, with C175A) (human | Neisseria meningitidis serogroup B (strain MC58)) (UniProt Q9JYV5); assay: SPR; Biacore T200; biotinylated AviTag-OAZ-GSY-SPM variants immobilised with the Biotin CAPture Kit, ODC flowed over; HBS with 2 mM TCEP and 0.02 mM PLP; 25 °C; 1:1 binding model

B1: His6-ODC-Ctag (human Ornithine Decarboxylase) (enzyme)
chain: NNFGNEEFDCHFLDEGFTAKDILDQKINEVSSSDDKDAFYVADLGDILKKHLRWLKALPRVTPFYAVKCNDSKAIVKTLAATGTGFDCASKTEIQLVQSLGVPPERIIYANPCKQVSQIKYAANNGVQMMTFDSEVELMKVARAHPKAKLVLRIATDDSKAVCRLSVKFGATLRTSRLLLERAKELNIDVVGVSFHVGSGCTDPETFVQAISDARCVFDMGAEVGFSMYLLDIGGGFPGSEDVKLKFEEITGVINPALDKYFPSDSGVRIIAEPGRYYVASAFTLAVNIIAKKIVLKEQTGSDDEDESSEQTFMYYVNDGVYGSFNCILYDHAHVKPLLQKRPKPDEKYYSSSIWGPTCDGLDRIVERCDLPEMHVGDWMLFENMGAYTVAAASTFNGFQRPTIYYVMSGPAWQLMQQFQ
coupling yield after 2 h, lyophilized OAZ-GSY-SPM [1]: 51% | coupling yield after 2 h, untreated control [1]: 48% | coupling yield at 0.5 mM Ca2+ compared to 10 mM Ca2+ after 2 h [1]: 78% | coupling yield in TBS compared to HBS after 2 h [1]: 95% | half-time of the conjugation reaction at pH 7.0 [1]: < 2 min | Kd [2]: 120 nM

B2: ODC ΔN ΔC 4KR with K92 re-introduced (enzyme)
chain: DCHFLDEGFTAKDILDQKINEVSSSDDKDAFYVADLGDILKKHLRWLKALPRVTPFYAVKCNDSRAIVRTLAATGTGFDCASKTEIQLVQSLGVPPERIIYANPCKQVSQIRYAANNGVQMMTFDSEVELMKVARAHPKAKLVLRIATDDSKAVCRLSVKFGATLRTSRLLLERAKELNIDVVGVSFHVGSGCTDPETFVQAISDARCVFDMGAEVGFSMYLLDIGGGFPGSEDVKLKFEEITGVINPALDKYFPSDSGVRIIAEPGRYYVASAFTLAVNIIAKKIVLKEQTGSDDEDESSEQTFMYYVNDGVYGSFNCILYDHAHVKPLLQKRPKPDEKYYSSSIWGPTCDGLDRIVERCDLPEMHVGDWMLFENMGAYTVAAASTFNGFQRPTIYYVMSGPAWQLMQQFQ
conjugation compared to wild-type ODC [1]: 89%
